The assay deals with BpGH94MLG, glycoside (cellodextrin) phosphorylase of CAZy family GH94 from Blautia producta ATCC 27340 (Blautia producta ATCC 27340). As to the kind of experiment: crystal structure; crystal structure of recombinant BpGH94MLG at 2.3 Å; two copies per asymmetric unit; crystallisation methods not shown (supplement).

Broadly, the stoichiometry N is the number of molecules, sites or subunits per partner or assembly. On to “BpGH94MLG, glycoside (cellodextrin) phosphorylase of CAZy family GH94 from Blautia producta ATCC 27340 (enzyme)”, for which the stoichiometry N came to 2.

The values are drawn from PMC10318527, “Utilization of dietary mixed-linkage β-glucans by the Firmicute Blautia producta” (The Journal of Biological Chemistry, 2023).
